Data from the DeepSol protein solubility set.

Assay: soluble on expression in E. coli; label from the status in PepcDB or PDB records

Soluble on expression in E. coli, not soluble:
MGSDKIHHHHHHMTAPKIIDMQALRIFLAAAKDQNMSIAASKLGLTQSAVSQAIGQLEEQFGIKLLDRNRRPLTLTSAGYVLYERGEQLVSAALNLKGAVLEAGHGVRPAIRLGLVDSVATTCGTSIIKQLMPRVAQLKLQTGLSFDVGAALIDRRVDLAITSEPMHRENGLVRYRVLTEQFVVIFSPGLEVADRENTNLALLSAQLPMIRYRSQSHLGRQAETVLRRADLEIPQFLEVDTADTLTSMVAGGLGWALTTPLCLLQAQEHAKRVGIGFLQSSGDSRSIYLLARGGKFDSLIKDTFDITVSVLKEECLARLAYIHPSLDRHAMMGEWPGIAGHSKTTGARRQPDISSEGIE
MGSDKIHHHHHHMTDKGKNDLTSKAKDKARGNPEKPPYWFEIIVSDPQKRTGDPGSSSGYVSYQISTKTNNTSFYDNRGDPESIIVVHRRYSDLLLLHDILLNRFPTCIIPPLPDKKVFQYIAGDRFSQRFTQKRCHSLQNFLRRVSLHPDLSQSKVFKTFLVSKDWESHRKVLQDSLQPNKDEVTDAFMNAFKTVHKQNEEFTEIREKSDKLDRTVTKIDKLFHKVVKKNDSMSEDYTKLGSNLQELQELVTGENEELAAKLKIFNEGVTQLSYGLQDLTKYLDYEYIVDLKDLEHYIDSMRQLIKLKDQKQIDYEELSDYLTRSIKEKNNLISGYGGSNFFANKLEELAGINQEASRREKINKLEGKITSLTGELENAKKVADGFEQECLKEIDHFESVKTAEIKKSLGSLADHHIEFYERILEAWEKVDDSL
MGSDKIHHHHHHMTEATKTDFSKLNVYQKLAYVRQKAPYIQKSKRGQQYSYVGSSDVLSALNTVINQVGLILKPEIVAHQVRESQDEVWKADKVKKEPVAKKRTTYFTELELMMTWINIHNPSEIVACSWYSQGVDIEGEKGVGKALTYAEKYFLLKFFNIATDDDDPDKYQKEQLKNTTITERQIDMLNASISRVAELAGQEFEAVKSLAINDSDLNPKKAFEEYSAYDYGVISKLLAKWINFYESRQKVQEDKK
MGSDKIHHHHHHMTEKKIILADEPLKSPDQDKLGFAPFAKRIATVIQSVQLRESIVFAVYGKWGSGKTTFINFLTSYLNHDSSITIVKFDPWWFSEKEDLIRQFLSNLQFTLNKSTKFKDIAKMLKPYIETLGEIPKFGWIFKIASRFKKNLQKSVIETKEEIINRLKEKDGKIVVIIDDIDRLTAKEIRELFTIVKAIADFPNTVYILAFDKDIVIRALEKVQEGKGEDYLEKIIQIPIELPLADKTSIRKMLFEELDAVLSGTSNELFDSTYWRNVYWDGIDPFINTVRNVKRLINTIRVTYPSVKNEVNAVDFIAIETLRVFCPEVYSIVKDYPDMFCGYSGEIYDVSRRHIEFLKQFHQNWLSRLNFPDDLKENIKNLLKRLFPKFESVFENIYYGPDWEREWRKKYRICCKEIFPRFFIFSVPSDDLSKHEMDFILSSLHNKEALIEHLKRLATQIRSDGSTRLSIFLERMEDYASEISQDYIPVVIEVFFTIGDKLIIPEDENKSFLIPWGNDIRMERIIWRLLRRYDNNSKRFEVLKNAFKNGQALFMMVNVLILFWQQHRKYRDAKESDAILLDENHLKTLQEIVLDKIRKAVEEGSLLNTPSLPVILHQWREWANEDEVKEWVKEIVFSDEKLPIFLTKFLQKTVSWTETSRATNIYWQIDLNWLKDFINLDFLEKRCNEILSNDSIIGTLEDKQKLAIRLFLNEKTKSLDSSTEEQGKDG
MGSDKIHHHHHHMTENKPSEQTNELKDLVVEKEFNQTLDDLLANPFGSDGESAASIVNNETDAAPRLVDMLTETNKKQALELSKQIEPGNQAAILGYGAPAQAKLHDFSHSMLAHVQKQDVGPIGDIISDLMYRLQEADPDELAARNKNVFTKMFHRVKQSINEITSKYQKIGTQIDRIALKLEHSKKRLMEDNSFLEQLYDKNKDYFQALNIYIAAGELKLEEINTKMLPELRKKAEQTGDQMDYQEVNDLTQFADRLDKRVYDLRLSRQITIQQAPQIRLIQNTNQALAEKIQSSIMTAIPLWKNQVAIALTLLRQQQAVAAQRQVSETTNELLKRNADMLKTNAIETARENERGIVDIETLKETQSSLIETLQETLKIQQEGRAKRAVAEKELVTMEQELKERLLEMK
MGSDKIHHHHHHMTIKETSRSEFITLRGLRYHVRQWGTPGAPKLFMLHGWMDVAASFQFLVDCLERDWHVIAPDWRGFGETDWPTRYPGTESYWFADYIADLEALLDHYQPNGQVDLVGHSMGANVACLYAGIRPERVHRVVDLEGFGLTQTRAEQAPKRYARWLDELRQRPELRTYDDVSGVAARLQKTNPRLPDDRAAFLAEHWSRRNEAGQWEILGDPAHKLVNPVLYRVDEVMAIWAEVSAPVLHVEARDSATLRHIAHKQTLEEFRERFRAFRDFREVVIDDAGHMLHHDQPAAVAALIESFIA
MGSDKIHHHHHHMTKEASRPALDLARQAYEAFKARGLNLNMQRGQPADADFDLSNGLLTVLGAEDVRMDGLDLRNYPGGVAGLPSARALFAGYLDVKAENVLVWNNSSLELQGLVLTFALLHGVRGSTGPWLSQTPKMIVTVPGYDRHFLLLQTLGFELLTVDMQSDGPDVDAVERLAGTDPSVKGILFVPTYSNPGGETISLEKARRLAGLQAAAPDFTIFADDAYRVHHLVEEDRAEPVNFVVLARDAGYPDRAFVFASTSKITFAGAGLGFVASSEDNIRWLSKYLGAQSIGPNKVEQARHVKFLTEYPGGLEGLMRDHAAIIAPKFRAVDEVLRAELGEGGEYATWTLPKGGYFISLDTAEPVADRVVKLAEAAGVSLTPAGATYPAGQDPHNRNLRLAPTRPPVEEVRTAMQVVAACIRLATEEYRAGH
MGSDKIHHHHHHMTKHASARKFPPRARFLPKCEPSLYHERRSVSARASGPTTVIDPKTVTDVTNDTLSHYALPAYPAEQFCVDIGANAGDPIGILDDLVMDDIYELTSDARLRRLAFGVSTEGTITLHSESEMGQDGARLHLDCAVTLMPDLGSAIEALIAVEVDNEGLIARLYLIPQAPLAQGTGYRLVRASREPVWTRLAQLSCVAFSRGTHITMGTGEQRPIEMLRAGDRVLTRNSGARRITWVGHTTVRAVGEMAPILIRQGALNNARDLLVSPDHRLMIYQRSDALGAGRNELMIRARDLVNGDSVVVQDGGFVDYYQILFDRHHIIYAEGIAAESMLVDPVTRPALPEEVQQRLTQPRRHGTRGDHGLEIRRPMLSHPDTVDLLKRASLR
MGSDKIHHHHHHMTKLDSFHLGELYRELRVARGLKMKDVVSDKLSQAQLSKFENGQTMLSADKLLTAISAIHMSFAEFEHAYYQYEDSSFFKQAKLISKYHSNKNIEGLEKLLIIHDNNSETYDVYDKLNKLVIRCAIHDLNPEYIISDDDKDFITTYLYSIEEWTEYELYIFGNTLQVLSDSDLIFLSKSFIERDSLYLSIPNNNFRTQLVVLNIIFVLLERKKDYCVHYFMKHLESILTYQDMFVKTVLIFLKKVLNYREGKGTHLIDLKKYIHDVEELGHEDVAEFLKDNIVNLL
MGSDKIHHHHHHMTKTYHFIGIKGSGMSALALMLHQMGHKVQGSDVEKYYFTQRGLEQAGIQILPFDEKNITADVELIAGNAFRPDNNVEIAYVDAQGYTYKRYHEFLGEFMKGFTSLGVAGAHGKTSTTGLLAHVMRNITDTSFLIGDGTGRGSANAQYFVFESDEYERHFAPYHPEYSIITNIDFDHPDYFTSLEDVFNAFNDYAKQVKKALLVFGEDEQLRRITANAPIYYYGFEENNDFVAYDLKPSTSGSQFKVRHGEEELGEFQIPTFGKHNVMNATAVIANLYIAGFDLQLVAEHLKTFGGVKRRFTEKIVNDTVIIDDFAHHPTEIIATIDAARQKYPSKELVAIFQPHTFTRTIALLDEFADALNGADAVYLAQIYGSARETDNGQVKVEDLAAKINKKGGLVTVENTSPLLDHDNAVYVFMGAGDIQSYEYSFERLLSNLTNNVQ
MGSDKIHHHHHHMTLAEKILSQKAGRKVEPGEFLLLEPDIALANDITAPLAIKKFKEYGGKKVKYPDRVVLVPDHFTPNKDIKSAMQVKMMREFAREQGIEKFFEIGRMGIEHVLLPEEGIVKSGDLVVGADSHTCTYGALGAFATGVGSTDIAGFYLIGKVWFRVPESIKVTLRGKFKDLVTAKDLVLKLISILGVDGANYKAIEFSGPGVKEISMDGRFTISNMAIEAGGKTGLFPVDEITIAYERERGIEVEEMYPDEDAKYVREVEMDLSELEPQVAYPFLPSNAKDVSEAEKERIKIDQAVIGSCTNGRIEDLRLAAQILKGRTVSPDVRCIIIPGSQKVYKQALKEGLIDIFIDAGCAVSTPTCGPCLGGHMGVLAEGEVAISTTNRNFVGRMGHPNSKVFLASPAVAAASAIKGYIADPRKL
MGSDKIHHHHHHMTLDSIERAIADIANGKPVVVVDSEDRENEGDLIFAADKATPELVAFMVRYSSGYICASLTSEECDRLQLPPMTSHNEDARGTAYAVTVDANTGTTGISATSRADTLRKLADSQFGPQDFTRPGHVVPLRAKAGGVLERAGHTEAAVDLARMAGLNPAGVLCEVVSEDDPTDMARAPELRRFADRHDLALISIEQLIEWRRRYELLVERAVSTQLPTEFGRFTAVGYRGIVDGVEHIALVAGDITSDEGKDVLLRVHSECLTGDVLGSRRCDCGPQLQASLRAISERGRGVVVYLRGHEGRGIGLLHKLQAYHLQDEGADTVDANKALGLPVDARNYSVAAHILRDLGVQSVCLLTNNPEKSLELERYGVKVTGREPVKVEVHEDNIRYLTTKRDRMNHDLPWIAEYKKEQS
MGSDKIHHHHHHMTLKVTLCDDSKMARKQLLRTLPDDWDAEVHQAEHGEQALTCLREGRAEVLFLDLNMPVKDGYETLQAIKEEQLETLVIVVSGDIQPEAQKRVQALGAMAFVKKPMKPEDIQTLLQQFGLYQPAAGQLKLADETPQAPANPLDVYREVSNVAMGQAGDHLARVLDTFIELPVPNVNFIAPSELHMAIESIDTNKQVAAVSQGFSGSGILGEALTLFNDASIDDIGKLLGAKLGESGSIKQQRIESLMDVASILSSACLNGLGQQLHVEFAASQPVLLGEHQSMRELIKHGEHRWQKILAIEIGYQLPEHKLAFDLLLLFPADAVKILDQQLAHWLQGDDE
MGSDKIHHHHHHMTLPPPRPPALCRGVVGLPLETQIDLTASNLAAVADLAAQYGLLIYLEALSWTPLNTIDRQLRTIEIANRDNIRLVIDFWHCYTSGDTPKHIARLHKDIIYGVHICDSLAYAGGVPDENMLRDVPTGNGVLNLKEWVDAVKSTGYDGWWSCELFCRRQHQENSYDVARSLNALMRDLVGA
MGSDKIHHHHHHMTMQPKYRELLLDEDVRRWFENLKAKSVLTATVALRNLGHYCELTGTTPHGILNKARANEKDFRYEFTDFVRKMEKEGKAGSYIARFKKVILSWLKFNDIRLQLTVNIAGENETPTIVNERVPSKEELARILRKATSRGRVAIAIMAFSGLRPESLGDYEGTDGLRLGDLKELKLSDEIQFDKIPATVMVKSKLSKARHHYFSFIGEEGTTYIREYLDERRKQGEELTYESPLLQFDVRGVKKNAFLRTTLVTRDIREAIEQAGLKMRPYVLRAYFSTALDIAESKGLISHPWRQFIMGHKGDIEARYSTNKRLPPDIIDEMRESYNKCTKFLETRISDVSEENARLYLQQQLLSAVGYRQDEIDKMNLAETSTEDFQKLLRDKVAGAMASNGSKQRLVSMNEIEKLLGEGYEFQAVLPNGKAIMKMPF
MGSDKIHHHHHHMTNLGTAKNFWDATLYQDKHSFVWQYGEDLLQLLNPQPGEFILDLGCGTGQLTEKIAQSGAEVLGTDNAATMIEKARQNYPHLHFDVADARNFRVDKPLDAVFSNAMLHWVKEPEAAIASIHQALKSGGRFVAEFGGKGNIKYILEALYNALETLGIHNPQALNPWYFPSIGEYVNILEKQGFDVTYAALFNRPTTLAEGEFGMANWIQMFASAFLVGLTPDQQVQLIRKVEATLQDKLYHQESWTADYRRIRIVSIKAQ
